# B1: Ubiquitin thioesterase OTUB2 (Homo sapiens), Q96DC9 (parent)
# chain: MSETSFNLISEKCDILSILRDHPENRIYRRKIEELSKRFTAIRKTKGDGNCFYRALGYSYLESLLGKSREIFKFKERVLQTPNDLLAAGFEEHKFRNFFNAFYSVVELVEKDGSVSSLLKVFNDQSASDHIVQFLRLLTSAFIRNRADFFRHFIDEEMDIKDFCTHEVEPMATECDHIQITALSQALSIALQVEYVDEMDTALNHHVFPEAATPSVYLLYKTSHYNILYAADKH
# partner: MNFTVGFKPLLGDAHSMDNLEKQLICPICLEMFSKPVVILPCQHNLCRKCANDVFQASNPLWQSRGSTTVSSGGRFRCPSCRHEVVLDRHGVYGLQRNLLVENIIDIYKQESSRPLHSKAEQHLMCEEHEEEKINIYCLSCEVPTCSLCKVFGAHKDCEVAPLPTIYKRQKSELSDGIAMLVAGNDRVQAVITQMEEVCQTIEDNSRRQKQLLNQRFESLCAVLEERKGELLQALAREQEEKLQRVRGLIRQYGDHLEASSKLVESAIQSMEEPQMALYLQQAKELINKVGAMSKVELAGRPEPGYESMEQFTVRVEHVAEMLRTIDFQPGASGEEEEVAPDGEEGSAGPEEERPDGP
# B2: Microtubule-associated tumor suppressor candidate 2 (Homo sapiens), Q5JR59-3 (parent)
# chain: MGHCCCKPYNCLQCLDKTNESALVKEKELSIELANIRDEVAFHTAKCEKLQKEKEELERRFEDEVKRLGWQQQAELQELEERLQLQFEAEMARLQEEHGDQLLSIRCQHQEQVEDLTASHDAALLEMENNHTVAITILQDDHDHKVQELMSTHELEKKELEENFEKLRLSLQDQVDTLTFQSQSLRDRARRFEEALRKNTEEQLEIALAPYQHLEEDMKSLKQVLEMKNQQIHEQEKKILELEKLAEKNIILEEKIQVLQQQNEDLKARIDQNTVVTRQLSEENANLQEYVEKETQEKKRLSRTNEELLWKLQTGDPTSPIKLSPTSPVYRGSSSGPSSPARVSTTPR
# partner: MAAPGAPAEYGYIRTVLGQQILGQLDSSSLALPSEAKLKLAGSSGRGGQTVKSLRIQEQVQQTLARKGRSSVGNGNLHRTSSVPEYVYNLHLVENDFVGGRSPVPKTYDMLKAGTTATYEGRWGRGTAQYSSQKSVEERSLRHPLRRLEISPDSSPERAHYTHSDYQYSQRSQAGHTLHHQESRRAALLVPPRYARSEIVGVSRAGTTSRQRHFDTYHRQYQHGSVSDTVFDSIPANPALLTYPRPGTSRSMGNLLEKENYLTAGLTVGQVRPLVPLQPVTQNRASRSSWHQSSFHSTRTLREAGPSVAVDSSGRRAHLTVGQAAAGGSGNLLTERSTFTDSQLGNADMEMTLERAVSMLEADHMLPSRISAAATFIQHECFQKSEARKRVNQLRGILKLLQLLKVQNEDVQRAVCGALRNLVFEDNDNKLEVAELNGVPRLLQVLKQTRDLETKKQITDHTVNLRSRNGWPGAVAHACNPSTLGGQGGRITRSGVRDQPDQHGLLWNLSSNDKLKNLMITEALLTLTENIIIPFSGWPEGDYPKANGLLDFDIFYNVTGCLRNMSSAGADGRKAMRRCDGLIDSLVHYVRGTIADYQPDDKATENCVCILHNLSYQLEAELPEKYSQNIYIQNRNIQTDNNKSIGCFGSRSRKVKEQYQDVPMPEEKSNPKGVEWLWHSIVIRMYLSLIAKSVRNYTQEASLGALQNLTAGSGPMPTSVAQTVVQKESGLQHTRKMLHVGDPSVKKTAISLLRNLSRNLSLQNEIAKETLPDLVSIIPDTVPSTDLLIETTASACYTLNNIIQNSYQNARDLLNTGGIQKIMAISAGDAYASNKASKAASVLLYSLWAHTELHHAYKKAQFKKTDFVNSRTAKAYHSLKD
# B3: MAGUK p55 subfamily member 2 (Homo sapiens), Q14168-2 (parent)
# chain: MPVAATNSETAMQQVLDNLGSLPSATGAAELDLIFLRGIMESPIVRSLAKAHERLEETKLEAVRDNNLELVQEILRDLAHVAEQSSTAAELAHILQEPHFQSLLETHDSVASKTYETPPPSPGLDPTFSNQPVPPDAVRMVGIRKTAGEHLGVTFRVEGGELVIARILHGGMVAQQGLLHVGDIIKEVNGQPVGSDPRALQELLRNASGSVILKILPSYQEPHLPRQVFVKCHFDYDPARDSLIPCKEAGLRFNAGDLLQIVNQDDANWWQACHVEGGSAGLIPSQLLEEKRKAFVKRDLELTPNSGTLCGSLSGKKKKRMMYLTTKNAEFDRHELLIYEEVARMPPFRRKTLVLIGAQGVGRRSLKNKLIMWDPDRYGTTVPYTSRRPKDSEREGQGYSFVSRGEMEADVRAGRYLEHGEYEGNLYGTRIDSIRGVVAAGKVCVLDVNPQAVKVLRTAEFVPYVVFIEAPDFETLRAMNRAALESGISTKQLTEADLRRTVEESSRIQRGYGHYFDLCLVNSNLERTFRELQTAMEKLRTEPQWVPVSWVY
# partner: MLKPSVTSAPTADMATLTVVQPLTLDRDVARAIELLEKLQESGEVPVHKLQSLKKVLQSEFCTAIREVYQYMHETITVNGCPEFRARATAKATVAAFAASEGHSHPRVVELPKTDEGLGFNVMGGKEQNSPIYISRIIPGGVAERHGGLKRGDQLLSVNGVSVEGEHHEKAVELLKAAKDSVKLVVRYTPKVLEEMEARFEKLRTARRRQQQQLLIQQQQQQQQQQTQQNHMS
# B4: Filamin-binding LIM protein 1 (Homo sapiens), Q8WUP2 (parent)
# chain: MASKPEKRVASSVFITLAPPRRDVAVAEEVRQAVCEARRGRPWEAPAPMKTPEAGLAGRPSPWTTPGRAAATVPAAPMQLFNGGCPPPPPVLDGEDVLPDLDLLPPPPPPPPVLLPSEEEAPAPMGASLIADLEQLHLSPPPPPPQAPAEGPSVQPGPLRPMEEELPPPPAEPVEKGASTDICAFCHKTVSPRELAVEAMKRQYHAQCFTCRTCRRQLAGQSFYQKDGRPLCEPCYQDTLERCGKCGEVVRDHIIRALGQAFHPSCFTCVTCARCIGDESFALGSQNEVYCLDDFYRKFAPVCSICENPIIPRDGKDAFKIECMGRNFHENCYRCEDCRILLSVEPTDQGCYPLNNHLFCKPCHVKRSAAGCC
# partner: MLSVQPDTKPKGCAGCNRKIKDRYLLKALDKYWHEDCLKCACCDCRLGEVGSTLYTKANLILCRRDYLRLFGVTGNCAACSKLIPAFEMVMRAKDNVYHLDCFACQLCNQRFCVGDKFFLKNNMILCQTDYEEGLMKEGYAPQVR
# Variants of: B1
# Conditions: with tri54_human TRIM54, Q9BYV2
row,effect of a mutation on the interaction,Variant
1,disrupting interaction strength,R146P

# Variants of: B2
# Conditions: with pkp2_human PKP2, Q99959
row,effect of a mutation on the interaction,Variant
1,with no effect,A89V

# Variants of: B3
# Conditions: with lin7a_human LIN7A
row,effect of a mutation on the interaction,Variant
1,with no effect,R500W

# Variants of: B4
# Conditions: with lmo3_human LMO3, Q8TAP4
row,effect of a mutation on the interaction,Variant
1,with no effect,V174I
2,with no effect,E233K
